Measurements taken from paper PMC3998870 (Nature, 2014).

B1: VirB10/TrwE with a C-terminal StrepII tag (natural protein, Escherichia coli plasmid R388, UniProt O50337 1-395, looked up)
chain: MFGRKKGDVIDAGAELERAEQERIEGEYGASELASERRPHTPGARTLLMVLLCVIAVVLVTLSYKAYKVRGVVEDDDAQPQQVVRQVIPGYTPRPIRPEPENVPEPPQPTTSVPAIQPAPVTQPVRPQPTGPREKTPYELARERMLRSGLTAGSGGGEDLPRPQGGDVPAGGLMGGGGGGGELAEKLQPMRLSGSSAGRLGNRDMLITQGTQLDCVLETRLVTTQPGMTTCHLTRDVYSTSGRVVLLDRGSKVVGFYQGGLRQGQARIFVQWSRIETPSGVVINLDSPGTGPLGEAGLGGWIDRHFWERFGGAIMISLIGDLGDWASRQGSRQGNNSIQFSNTANGVESAAAEALRNSINIPPTLYKNQGERVNILVARDLDFSDVYSLESIPTK
B2: VirB4/TrwK (untagged, in the T4SS3-10 complex) (enzyme, Escherichia coli plasmid R388, UniProt O50330 1-823, looked up)
chain: MGAIESRKLLASETPVGQFIPYSHHVTDTIISTKNAEYLSVWKIDGRSHQSASEADVFQWIRELNNTLRGISSANLSLWTHIVRRRVYEYPDAEFDNVFCRQLDEKYRESFTGYNLMVNDLYLTVVYRPVSDKVLSFFAKRERETPDQKKHRQESCIKALEDINRTLGQSFKRYGAELLSVYEKGGHAFSAPLEFLARLVNGEHIPMPICRDRFSDYMAVNRPMFSKWGEVGELRSLTGLRRFGMLEIREYDDATEPGQLNVLLESDYEFVLTHSFSVLSRPAAKEYLQRHQKNLIDARDVATDQIEEIDEALNQLISGHFVMGEHHCTLTVYGETVQQVRDNLAHASAAMLDVAVLPKPVDLALEAGYWAQLPANWQWRPRPAPITSLNFLSFSPFHNFMSGKPTGNPWGPAVTILKTVSGTPLYFNFHASKEEEDATDKRLLGNTMLIGQSSSGKTVLLGFLLAQAQKFKPTIVAFDKDRGMEISIRAMGGRYLPLKTGEPSGFNPFQLPPTHANLIFLKQFVKKLAAAGGEVTHRDEEEIDQAITAMMSDSIDKSLRRLSLLLQFLPNPRSDDMDARPTVHARLVKWCEGGDYGWLFDNPTDALDLSTHQIYGFDITEFLDNPEARTPVMMYLLYRTESMIDGRRFMYVFDEFWKPLQDEYFEDLAKNKQKTIRKQNGIFVFATQEPSDALESNIAKTLIQQCATYIFLANPKADYEDYTQGFKLTDSEFELVRGLGEFSRRFLIKQGDQSALAEMNLGKFRTIVDGETVERDFDDELLVLSGTPDNAEIAESIIAEVGDDPAVWLPIFLDRVKAERSDV
B3: VirB5/TrwJ (natural protein, Escherichia coli plasmid R388, UniProt O50331 23-226, looked up)
chain: QGIPVFDGTRALDFVQQFARMKEQLDTAKDQLAEAQRMYEAVTGGRGLGDLMRNAQLREYLPDDLRTVYDSANGGGYSGISGSINDILRDERLNGSVADMRRSIEERSRTARTTDKAVGCGPTKGHSNASRRLKDEISRTQDQKAIEELQARIAGEQAAIQNETTKLQMIAQLRQAEQALISEQRRERNMPILSSGNQGMPTIQ
B4: VirB8/TrwG (natural protein, Escherichia coli plasmid R388, UniProt O50335 1-231, looked up)
chain: MSKKQPKPVKAEQLKSYYEESRGLERDLIGEFVKSRKTAWRVATASGLFGLLGMVCGIVGFSQPAPAPLVLRVDNATGAVDVVTTLREHESSYGEVVDTYWLNQYVLNREAYDYNTIQMNYDTTALLSAPAVQQDYYKLFDGSNARDRVLGNKARITVRVRSIQPNGRGQATVRFTTQQHNSNGTVERPQHQIATIGYTYIGAPMRSSDRLLNPLGFQVTSYRADPEILNN
B5: VirB3/TrwM (natural protein, Escherichia coli plasmid R388, UniProt O50329 1-104, looked up)
chain: MKPPQQQHEAFPLFKGATRLPTILGEPMIPLMAMVMGVAVIALTVSIWWWALVPPLWFIMAQITKNDDKAFRIWWLWIDTKFRNRNKGFWGASSYSPANYRKRR

Columns and labels:
[1] = target: VirB4/TrwK (untagged, in the T4SS3-10 complex) (Escherichia coli plasmid R388) (UniProt O50330); assay: negative stain EM reconstruction
[2] = target: VirB10/TrwE with a C-terminal StrepII tag (Escherichia coli plasmid R388) (UniProt O50337); assay: tandem affinity purification with 125I labelling of tyrosines and SDS-PAGE
co-purification = target: the molecule itself; assay: co-purification
[3] = target: B1; assay: tandem affinity purification with 125I labelling of tyrosines and SDS-PAGE
[4] = target: T1, VirB4/TrwK with a C-terminal StrepII tag (Escherichia coli plasmid R388, UniProt O50330 1-823); assay: SEC
T1 sequence (looked up): B2 chain

## VirB4/TrwK (untagged, in the T4SS3-10 complex) (from UniProt O50330 1-823) (enzyme)
[1]
  stoichiometry N: 6

## VirB6/TrwI with an N-terminal His6 tag (natural protein)
[2]
  copies in the complex, calibrated on 14 copies of VirB10/TrwE: 23.8 copies

## B1
co-purification
  stoichiometry N: 14

## B2
[3]
  copies in the complex, calibrated on 14 copies of VirB10/TrwE: 11.5 copies

## B3
[3]
  copies in the complex, calibrated on 14 copies of VirB10/TrwE: 11.9 copies

## B4
[3]
  copies in the complex, calibrated on 14 copies of VirB10/TrwE: 12.6 copies

## B5
[4]
  stoichiometry N: 1
